Source: publication PMC314469, “Protein Interaction Networks by Proteome Peptide Scanning” (PLoS Biology, 2004)

Target: Sho1 SH3 (SHO1_YEAST), P40073
Assay: SPOT array

Chain of Sho1 SH3 (SHO1_YEAST), P40073 (P40073 295-366): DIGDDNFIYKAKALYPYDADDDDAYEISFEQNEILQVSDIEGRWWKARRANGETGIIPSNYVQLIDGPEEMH

Binder | normalised SPOT signal, Boehringer light units (BLU); mean over the file's lines of this peptide
QYYPEEPTKPTVKT [6-19 gamma-aminobutyrate (GABA) transaminase (4-aminobutyrate aminotransferase)] | 111
SNNPSKPRKYKTKS [110-123 Hypothetical ORF] | 332
RGTPANPGRVATLI [47-60 Hypothetical ORF] | 123
RLIPTSPQKTNINT [14-27 Hypothetical ORF] | 85.2
RRKPHSPNKKKPKE [12-25 Hypothetical ORF] | 173
QSQPPRPPRPAANL [24-37 Hypothetical ORF] | 128
SASPYRPQRLPAKF [13-26 Hypothetical ORF] | 118
SKFPELPSKVHNAV [141-154 methionyl tRNA synthetase] | 124
SHLPLIPEKIKSLK [203-216 similar to E. coli DinB and S. cerevisiae REV1] | 175
RERPLEPPRKPMAS | 554
RPTPRKPSRMATDH [8-21 Transmembrane osmosensor] | 1440
RNEPVKPFRNIDLK [29-42 delta-1-pyrroline-5-carboxylate dehydrogenase] | 87.5
RKRPAPPKKKAPST [82-95 ISWI One Complex] | 208
SELPKSPYRQKPTQ [124-137 " involved in meiosis, nuclear division and spore formation"] | 200
SALPILPKREVVTR [19-32 soluble cell wall protein] | 141
RIPPTVPSKIIDVV [7-20 Hypothetical ORF] | 521
SASPTLPTRRSRRL [62-75 Hypothetical ORF] | 212
RPSPWLPSKPNSYH | 1300

Next, values leading:

normalised SPOT signal, Boehringer light units (BLU); mean over the file's lines of this peptide | Binder
1610 | SKGPRTPAKEILEF [310-323 " similar to Est1, which is a putative component of telomerase"]
61.3 | QTSPGQPRKGQNGS [427-440 soluble tyrosine-specific protein phosphatase]
91.3 | SLAPVYPLKSLLRI [665-678 Hypothetical ORF]
233 | SGKPKKPYRRWTPE [666-679 negative regulator of prp genes]
1130 | SKIPMLPSRRTMAG [505-518 Meiotic regulatory protein; Cys-His zinc fingers]
65.5 | SHQPYLPIKNKNIV [329-342 Hypothetical ORF]
126 | RAVPILPPRNNVEP [543-556 Hypothetical ORF]
544 | SLPPTPPYKAHKKK [353-366 Hypothetical ORF]
998 | RRGPGRPRKDASTS [204-217 nuclear protein involved in silencing]
103 | SGKPLFPGRDYHHQ [221-234 MAP protein kinase homolog involved in pheromone signal transduction]
86.9 | SNSPISPHKLIYKN [473-486 positive transcriptional regulator of ADH2 and peroxisomal protein genes]
304 | QYIPPPPPKYINSK [482-495 Ume6p is a C6 zinc finger URS1-binding protein.]
108 | SNDPIPPPRKVSDV [457-470 transcriptional activator of the SKN7 mediated 'two-component' regulatory system]
75.1 | SAFPQSPIRAYGST [1382-1395 negative regulator of early meiotic genes]
39.1 | QSNPTSPTKQTFTI [600-613 BEM1-binding protein]
157 | SEEPTSPTRQVNPE [443-456 Putative participant in 3' mRNA processing]
191 | SDLPSSPIKAPNVE [232-245 DNA replication helicase]
334 | SMYPGLPSRLEKEL [307-320 actin-related protein]
190 | QRHPKSPVKKPMTS [878-891 involved in bud site selection]
135 | SDKPLTPTKTSSTL [341-354 DNA Damage Inducible; binds to T- and V- snare complexes]
149 | RVHPEPPNKPGITT [407-420 Hypothetical ORF]
117 | RPPPLTPEKNLYLT [258-271 Putative participant in 3' mRNA processing]
115 | SNFPDFPLKKYLKN [333-346 Hypothetical ORF]
99.9 | RPNPTQPRKPLDSK [776-789 vacuolar import degradation]
